B1: C-type lectin domain family 1 member A (Homo sapiens), Q8NC01 (parent)
chain: MQAKYSSTRDMLDDDGDTTMSLHSQGSATTRHPEPRRTEHRAPSSTWRPVALTLLTLCLVLLIGLAALGLLFFQYYQLSNTGQDTISQMEERLGNTSQELQSLQVQNIKLAGSLQHVAEKLCRELYNKAGAHRCSPCTEQWKWHGDNCYQFYKDSKSWEDCKYFCLSENSTMLKINKQEDLEFAASQSYSEFFYSYWTGLLRPDSGKAWLWMDGTPFTSELFHIIIDVTSPRSRDCVAILNGMIFSKDCKELKRCVCERRAGMVKPESLHVPPETLGEGD
partner: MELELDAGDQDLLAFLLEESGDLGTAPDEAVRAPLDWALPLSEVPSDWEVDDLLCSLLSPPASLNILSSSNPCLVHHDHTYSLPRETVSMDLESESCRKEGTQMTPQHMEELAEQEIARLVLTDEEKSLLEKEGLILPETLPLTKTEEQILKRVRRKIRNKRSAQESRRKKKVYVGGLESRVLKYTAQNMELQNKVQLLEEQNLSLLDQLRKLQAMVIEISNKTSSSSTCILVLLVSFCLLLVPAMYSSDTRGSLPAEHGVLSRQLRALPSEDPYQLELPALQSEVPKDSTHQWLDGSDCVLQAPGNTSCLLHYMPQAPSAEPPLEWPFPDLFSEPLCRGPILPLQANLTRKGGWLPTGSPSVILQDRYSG
B2: Tuftelin-interacting protein 11 (Homo sapiens), Q9UBB9 (parent)
chain: MSLSHLYRDGEGRIDDDDDERENFEITDWDLQNEFNPNRQRHWQTKEEATYGVWAERDSDDERPSFGGKRARDYSAPVNFISAGLKKGAAEEAELEDSDDEEKPVKQDDFPKDFGPRKLKTGGNFKPSQKGFAGGTKSFMDFGSWERHTKGIGQKLLQKMGYVPGRGLGKNAQGIINPIEAKQRKGKGAVGAYGSERTTQSMQDFPVVDSEEEAEEEFQKELSQWRKDPSGSKKKPKYSYKTVEELKAKGRISKKLTAPQKELSQVKVIDMTGREQKVYYSYSQISHKHNVPDDGLPLQSQQLPQSGKEAKAPGFALPELEHNLQLLIDLTEQEIIQNDRQLQYERDMVVNLFHELEKMTEVLDHEERVISNLSKVLEMVEECERRMQPDCSNPLTLDECARIFETLQDKYYEEYRMSDRVDLAVAIVYPLMKEYFKEWDPLKDCTYGTEIISKWKSLLENDQLLSHGGQDLSADAFHRLIWEVWMPFVRNIVTQWQPRNCDPMVDFLDSWVHIIPVWILDNILDQLIFPKLQKEVENWNPLTDTVPIHSWIHPWLPLMQARLEPLYSPIRSKLSSALQKWHPSDSSAKLILQPWKDVFTPGSWEAFMVKNIVPKLGMCLGELVINPHQQHMDAFYWVIDWEGMISVSSLVGLLEKHFFPKWLQVLCSWLSNSPNYEEITKWYLGWKSMFSDQVLAHPSVKDKFNEALDIMNRAVSSNVGAYMQPGARENIAYLTHTERRKDFQYEAMQERREAENMAQRGIGVAASSVPMNFKDLIETKAEEHNIVFMPVIGKRHEGKQLYTFGRIVIYIDRGVVFVQGEKTWVPTSLQSLIDMAK
partner: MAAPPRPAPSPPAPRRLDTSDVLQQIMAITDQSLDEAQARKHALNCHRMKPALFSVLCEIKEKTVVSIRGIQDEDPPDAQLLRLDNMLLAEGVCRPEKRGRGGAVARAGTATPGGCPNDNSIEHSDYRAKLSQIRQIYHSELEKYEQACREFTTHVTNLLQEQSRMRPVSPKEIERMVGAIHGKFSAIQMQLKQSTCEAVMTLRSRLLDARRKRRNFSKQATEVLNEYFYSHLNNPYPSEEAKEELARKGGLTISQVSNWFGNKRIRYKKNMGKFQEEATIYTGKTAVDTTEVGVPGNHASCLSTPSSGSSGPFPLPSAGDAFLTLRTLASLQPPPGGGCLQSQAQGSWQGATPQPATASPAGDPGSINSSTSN
B3: Syntenin-2 (Homo sapiens), Q9H190 (parent)
chain: MSSLYPSLEDLKVDQAIQAQVRASPKMPALPVQATAISPPPVLYPNLAELENYMGLSLSSQEVQESLLQIPEGDSTAVSGPGPGQMVAPVTGYSLGVRRAEIKPGVREIHLCKDERGKTGLRLRKVDQGLFVQLVQANTPASLVGLRFGDQLLQIDGRDCAGWSSHKAHQVVKKASGDKIVVVVRDRPFQRTVTMHKDSMGHVGFVIKKGKIVSLVKGSSAARNGLLTNHYVCEVDGQNVIGLKDKKIMEILATAGNVVTLTIIPSVIYEHMVKKLPPVLLHHTMDHSIPDA
partner: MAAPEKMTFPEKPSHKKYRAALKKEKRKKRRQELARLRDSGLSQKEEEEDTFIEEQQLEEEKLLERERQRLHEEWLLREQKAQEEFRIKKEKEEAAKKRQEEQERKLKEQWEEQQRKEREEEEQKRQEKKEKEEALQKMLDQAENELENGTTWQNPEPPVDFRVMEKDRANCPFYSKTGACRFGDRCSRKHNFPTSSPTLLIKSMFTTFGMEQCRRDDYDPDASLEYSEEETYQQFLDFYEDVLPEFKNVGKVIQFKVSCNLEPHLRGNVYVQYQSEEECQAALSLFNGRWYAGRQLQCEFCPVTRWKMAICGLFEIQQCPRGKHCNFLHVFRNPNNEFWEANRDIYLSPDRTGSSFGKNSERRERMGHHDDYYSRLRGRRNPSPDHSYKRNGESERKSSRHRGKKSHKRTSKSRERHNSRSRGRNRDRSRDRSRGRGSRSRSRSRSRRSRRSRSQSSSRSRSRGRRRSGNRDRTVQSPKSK
B4: Dynein light chain 2, cytoplasmic (Homo sapiens), Q96FJ2 (parent)
chain: MSDRKAVIKNADMSEDMQQDAVDCATQAMEKYNIEKDIAAYIKKEFDKKYNPTWHCIVGRNFGSYVTHETKHFIYFYLGQVAILLFKSG
partner: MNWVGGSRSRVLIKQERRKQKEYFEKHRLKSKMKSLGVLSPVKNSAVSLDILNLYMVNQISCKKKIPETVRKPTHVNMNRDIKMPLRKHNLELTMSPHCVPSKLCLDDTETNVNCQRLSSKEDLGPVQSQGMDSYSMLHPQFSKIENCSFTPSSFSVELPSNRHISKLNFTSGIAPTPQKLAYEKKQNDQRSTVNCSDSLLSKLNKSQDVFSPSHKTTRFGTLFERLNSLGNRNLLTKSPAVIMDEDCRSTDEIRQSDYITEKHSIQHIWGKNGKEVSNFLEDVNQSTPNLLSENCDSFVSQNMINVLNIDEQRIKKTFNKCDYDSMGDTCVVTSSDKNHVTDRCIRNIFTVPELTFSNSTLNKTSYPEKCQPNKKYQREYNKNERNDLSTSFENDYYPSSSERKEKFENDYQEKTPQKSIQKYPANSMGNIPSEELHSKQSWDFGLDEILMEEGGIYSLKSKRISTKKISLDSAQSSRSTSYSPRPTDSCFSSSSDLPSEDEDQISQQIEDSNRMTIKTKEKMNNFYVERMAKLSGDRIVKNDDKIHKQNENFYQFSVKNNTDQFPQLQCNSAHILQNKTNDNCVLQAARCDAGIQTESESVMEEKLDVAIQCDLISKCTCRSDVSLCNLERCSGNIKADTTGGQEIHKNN
B5: Proteasome subunit beta type-1 (Homo sapiens), P20618 (parent)
chain: MLSSTAMYSAPGRDLGMEPHRAAGPLQLRFSPYVFNGGTILAIAGEDFAIVASDTRLSEGFSIHTRDSPKCYKLTDKTVIGCSGFHGDCLTLTKIIEARLKMYKHSNNKAMTTGAIAAMLSTILYSRRFFPYYVYNIIGGLDEEGKGAVYSFDPVGSYQRDSFKAGGSASAMLQPLLDNQVGFKNMQNVEHVPLSLDRAMRLVKDVFISAAERDVYTGDALRICIVTKEGIREETVSLRKD
partner: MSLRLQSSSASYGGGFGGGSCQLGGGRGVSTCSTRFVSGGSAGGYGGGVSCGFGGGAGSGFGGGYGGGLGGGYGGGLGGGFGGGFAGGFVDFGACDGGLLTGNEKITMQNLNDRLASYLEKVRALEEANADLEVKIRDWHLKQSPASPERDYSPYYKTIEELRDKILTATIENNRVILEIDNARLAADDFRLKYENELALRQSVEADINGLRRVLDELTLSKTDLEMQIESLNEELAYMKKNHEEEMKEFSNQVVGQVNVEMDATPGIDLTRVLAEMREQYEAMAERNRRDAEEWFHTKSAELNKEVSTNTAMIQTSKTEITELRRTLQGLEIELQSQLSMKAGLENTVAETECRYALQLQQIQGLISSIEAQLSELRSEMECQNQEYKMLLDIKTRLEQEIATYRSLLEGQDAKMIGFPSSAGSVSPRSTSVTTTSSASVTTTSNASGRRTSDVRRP
B6: Protein sprouty homolog 1 (Homo sapiens), O43609 (parent)
chain: MDPQNQHGSGSSLVVIQQPSLDSRQRLDYEREIQPTAILSLDQIKAIRGSNEYTEGPSVVKRPAPRTAPRQEKHERTHEIIPINVNNNYEHRHTSHLGHAVLPSNARGPILSRSTSTGSAASSGSNSSASSEQGLLGRSPPTRPVPGHRSERAIRTQPKQLIVDDLKGSLKEDLTQHKFICEQCGKCKCGECTAPRTLPSCLACNRQCLCSAESMVEYGTCMCLVKGIFYHCSNDDEGDSYSDNPCSCSQSHCCSRYLCMGAMSLFLPCLLCYPPAKGCLKLCRRCYDWIHRPGCRCKNSNTVYCKLESCPSRGQGKPS
partner: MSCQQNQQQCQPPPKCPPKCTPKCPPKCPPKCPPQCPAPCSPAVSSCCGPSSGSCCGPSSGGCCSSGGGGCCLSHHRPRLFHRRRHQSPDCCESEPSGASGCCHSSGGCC

Variants of B1 are the subject of the first assay. The conditions noted are these: with creb3_human CREB3, O43889.
Consider P272S, for which the “effect of a mutation on the interaction” value is recorded as “with no effect”.

As to G26A, the “effect of a mutation on the interaction” value is recorded as “with no effect”.

The variants in another assay derive from B2. The conditions noted are these: with pbx4_human PBX4, Q9BYU1.
Take R8Q: the “effect of a mutation on the interaction” value is listed as “with no effect”.

With S688L, the “effect of a mutation on the interaction” value was “with no effect”.

The variants in another assay derive from B3. The conditions noted are these: with ZRSR2, Q15696.
For the variant V182M, the “effect of a mutation on the interaction” value is listed as “with no effect”.

For G242R, the “effect of a mutation on the interaction” value is recorded as “disrupting interaction strength”.

With G225R, the “effect of a mutation on the interaction” value is reported as “disrupting interaction strength”.

Variants of B4 are the subject of another assay. The conditions noted are these: with rdic1_human REDIC1, Q86WS4.
Regarding E30D, the “effect of a mutation on the interaction” value is “with no effect”.

In another assay the parent is B5. The conditions noted are these: with KRT13, P13646.
In the case of P11A, the “effect of a mutation on the interaction” value is recorded as “with no effect”.

Variants of B6 are the subject of another assay. The conditions noted are these: with lce2d_human LCE2D.
Regarding A37T, the “effect of a mutation on the interaction” value is “with no effect”.

As for R24H, the “effect of a mutation on the interaction” value is “with no effect”.
